Measured values reported in paper PMC11068563, “The MCU and MCUb amino-terminal domains tightly interact: mechanisms for low conductance assembly of the mitochondrial calcium uniporter complex” (iScience, 2024).
Numbering of substitutions follows the chain as printed. Names and notes keep the numbering of the source. One block for each molecule: values may come before it.

T1: MCU amino-terminal domain (MCU-NTD), MCU 72-189 (human, UniProt Q8NE86-1 72-189)
T1 construct: mitochondrial calcium uniporter (MCU), Homo sapiens, GenBank NP_612366.1, N-terminal domain, residues 72-189; theoretical monomer mass printed as 13.8637 kDa
T1 sequence (looked up): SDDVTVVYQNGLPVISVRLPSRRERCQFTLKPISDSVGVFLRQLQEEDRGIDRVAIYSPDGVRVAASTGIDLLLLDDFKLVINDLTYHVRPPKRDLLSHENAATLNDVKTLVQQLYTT

T2: Fluorescein-MCU-NTD (MCU 72-189 labelled with fluorescein-MTS at Cys97) (human, UniProt Q8NE86-1 72-189, fluorescein (fluorescein-methane thiosulfonate) on Cys97)
T2 construct: mitochondrial calcium uniporter (MCU), Homo sapiens, GenBank NP_612366.1, N-terminal domain, residues 72-189; also called MCU-NTD-fluorescein; source: labelled with fluorescein-MTS
T2 sequence (looked up): T1 sequence (looked up)

T3: MCU-NTD-D147R, MCU 72-189 D147R (human, UniProt Q8NE86-1 72-189, D147R)
T3 construct: mitochondrial calcium uniporter (MCU), Homo sapiens, GenBank NP_612366.1, N-terminal domain, residues 72-189, with D147R
T3 sequence (looked up): T1 sequence (looked up) with D76R

T4: MCU amino-terminal domain (MCU-NTD), MCU residues 72-189 (human, UniProt Q8NE86-1 72-189)
T4 construct: mitochondrial calcium uniporter (MCU), Homo sapiens, GenBank NP_612366.1, residues 72-189 (amino-terminal domain); theoretical monomer mass 13.8637 kDa is printed; also called MCU_(72-189); 15N-MCU-NTD; source: 15N-labelled in M9 minimal medium for NMR
T4 sequence (looked up): T1 sequence (looked up)

B1: MCUb amino-terminal domain (MCUb-NTD), MCUb 58-159 (domain or fragment, human, UniProt Q9NWR8 58-159, looked up)
chain: DEITVIYRHGLPLVTLTLPSRKERCQFVVKPMLSTVGSFLQDLQNEDKGIKTAAIFTADGNMISASTLMDILLMNDFKLVINKIAYDVQCPKREKPSNEHTA
notes: MCU dominant negative beta subunit (MCUb), Homo sapiens, GenBank NP_060388.2, N-terminal domain, residues 58-159; Theoretical monomer mass printed as 12.0098 kDa; a few vector residues probably remain after thrombin cleavage (pET-28a, NheI/XhoI); source: E. coli BL21(DE3) codon plus, purified (Ni-NTA, thrombin, SEC); not shown: 6xHis, N-terminal, cleaved
B2: Fluorescein-MCUb-NTD (MCUb 58-159 labelled with fluorescein-MTS at Cys82 and Cys147) (domain or fragment, human, UniProt Q9NWR8 58-159, looked up)
chain: B1 chain
modifications: fluorescein (fluorescein-methane thiosulfonate) on Cys82 and Cys147
notes: MCU dominant negative beta subunit (MCUb), Homo sapiens, GenBank NP_060388.2, N-terminal domain, residues 58-159; also called MCUb-NTD-fluorescein; source: E. coli BL21(DE3) codon plus, purified (Ni-NTA, thrombin, SEC); labelled with fluorescein-MTS; not shown: 6xHis, N-terminal, cleaved
B3: Red-(NHS)-MCUb-NTD (MCUb 58-159 labelled with Red-NHS on primary amines) (domain or fragment, human, UniProt Q9NWR8 58-159, looked up)
chain: B1 chain
modifications: Red-NHS dye covalently linked to primary amines
notes: MCU dominant negative beta subunit (MCUb), Homo sapiens, GenBank NP_060388.2, N-terminal domain, residues 58-159; also called Red-(NHS)-labeled MCUb-NTD; source: E. coli BL21(DE3) codon plus, purified (Ni-NTA, thrombin, SEC); labelled with the RED-NHS labeling kit (NanoTemper); not shown: 6xHis, N-terminal, cleaved
B4: MCU-NTD-D147R (MCU residues 72-189 with D147R) (domain or fragment, human, UniProt Q8NE86-1 72-189, looked up)
chain: T1 sequence (looked up) with D76R
notes: mitochondrial calcium uniporter (MCU), Homo sapiens, GenBank NP_612366.1, residues 72-189 (amino-terminal domain) with D147R in the MCU regulating acidic patch; also called D147R MCU_(72-189)
B5: MCUb-NTD-fluorescein (MCUb residues 58-159 labelled with fluorescein at Cys82 and Cys147) (domain or fragment, human, UniProt Q9NWR8 58-159, looked up)
chain: B1 chain
modifications: fluorescein (fluorescein-methane thiosulfonate) on Cys82 and Cys147
notes: MCU dominant negative beta subunit (MCUb), Homo sapiens, GenBank NP_060388.2, residues 58-159 (amino-terminal domain); Same chain as m1, with the label; also called fluorescein-MCUb-NTD; MCUb_(58-159) labeled; source: E. coli BL21(DE3) codon plus, purified (Ni-NTA, thrombin, SEC), then labelled with fluorescein-MTS
B6: Red-(NHS)-labeled MCUb-NTD (MCUb residues 58-159) (domain or fragment, human, UniProt Q9NWR8 58-159, looked up)
chain: B1 chain
modifications: Red-NHS dye covalently linked to primary amines
notes: MCU dominant negative beta subunit (MCUb), Homo sapiens, GenBank NP_060388.2, residues 58-159 (amino-terminal domain); Same chain as m1, with the label; source: E. coli BL21(DE3) codon plus, purified (Ni-NTA, thrombin, SEC), then labelled with the RED-NHS labeling kit (NanoTemper)

Columns and labels:
[1] = target: MCU amino-terminal domain (MCU-NTD), MCU residues 72-189 (human) (UniProt Q8NE86); assay: cross-linking; 1 mM BS-3, 90 min, 20 mM HEPES (pH 8.4), 150 mM NaCl, 1 mM DTT, ambient temperature; proteins at 67.5 uM, mix with 67.5 uM or 33.8 uM of each; SDS-PAGE, Coomassie
[2] = target: MCU amino-terminal domain (MCU-NTD), MCU 72-189 (human) (UniProt Q8NE86); assay: SEC-MALS; 100 uL injected at 3.0 mg mL-1 (mixed sample: final 1.5 mg mL-1 of each component); Superdex 200 Increase 10/300 GL; 20 mM Tris (pH 8.5), 150 mM NaCl, 1 mM DTT, 10 C; with 5 mM CaCl2
[3] = target: MCU amino-terminal domain (MCU-NTD), MCU 72-189 (human) (UniProt Q8NE86); assay: SEC-MALS; 100 uL injected at 3.0 mg mL-1 (mixed sample: final 1.5 mg mL-1 of each component); Superdex 200 Increase 10/300 GL; 20 mM Tris (pH 8.5), 150 mM NaCl, 1 mM DTT, 10 C; with 5 mM MgCl2
[4] = target: MCU amino-terminal domain (MCU-NTD), MCU 72-189 (human) (UniProt Q8NE86); assay: SEC-MALS; 100 uL injected at 3.0 mg mL-1 (mixed sample: 3 mg mL-1 each mixed, final 1.5 mg mL-1 of each component); Superdex 200 Increase 10/300 GL; 20 mM Tris (pH 8.5), 150 mM NaCl, 1 mM DTT, 10 C; no divalent cations
[5] = target: MCUb amino-terminal domain (MCUb-NTD), MCUb 58-159 (human) (UniProt Q9NWR8); assay: SEC-MALS; 100 uL injected at 2.0 mg mL-1; Superdex 200 Increase 10/300 GL; 20 mM Tris (pH 8.5), 150 mM NaCl, 1 mM DTT, 10 C; no divalent cations
[6] = target: MCUb amino-terminal domain (MCUb-NTD), MCUb 58-159 (human) (UniProt Q9NWR8); assay: SEC-MALS; 100 uL injected at 4.0 mg mL-1; Superdex 200 Increase 10/300 GL; 20 mM Tris (pH 8.5), 150 mM NaCl, 1 mM DTT, 10 C; no divalent cations
[7] = target: MCUb amino-terminal domain (MCUb-NTD), MCUb 58-159 (human) (UniProt Q9NWR8); assay: SEC-MALS; 100 uL injected at 3.0 mg mL-1 (mixed sample: final 1.5 mg mL-1 of each component); Superdex 200 Increase 10/300 GL; 20 mM Tris (pH 8.5), 150 mM NaCl, 1 mM DTT, 10 C; with 5 mM CaCl2
[8] = target: MCUb amino-terminal domain (MCUb-NTD), MCUb 58-159 (human) (UniProt Q9NWR8); assay: SEC-MALS; 100 uL injected at 3.0 mg mL-1 (mixed sample: final 1.5 mg mL-1 of each component); Superdex 200 Increase 10/300 GL; 20 mM Tris (pH 8.5), 150 mM NaCl, 1 mM DTT, 10 C; with 5 mM MgCl2
[9] = target: T1, MCU amino-terminal domain (MCU-NTD), …; assay: SEC-MALS; 100 uL injected at 3.0 mg mL-1 (mixed sample: final 1.5 mg mL-1 of each component); Superdex 200 Increase 10/300 GL; 20 mM Tris (pH 8.5), 150 mM NaCl, 1 mM DTT, 10 C; with 5 mM CaCl2; settings: both partners purified
[10] = target: T1, MCU amino-terminal domain (MCU-NTD), …; assay: SEC-MALS; 100 uL injected at 3.0 mg mL-1 (mixed sample: final 1.5 mg mL-1 of each component); Superdex 200 Increase 10/300 GL; 20 mM Tris (pH 8.5), 150 mM NaCl, 1 mM DTT, 10 C; with 5 mM MgCl2; settings: both partners purified
[11] = target: MCUb amino-terminal domain (MCUb-NTD), MCUb 58-159 (human) (UniProt Q9NWR8); assay: SEC-MALS; 100 uL injected at 3.0 mg mL-1 (mixed sample: 3 mg mL-1 each mixed, final 1.5 mg mL-1 of each component); Superdex 200 Increase 10/300 GL; 20 mM Tris (pH 8.5), 150 mM NaCl, 1 mM DTT, 10 C; no divalent cations
[12] = target: T1, MCU amino-terminal domain (MCU-NTD), …; assay: as above; settings: both partners purified
[13] = target: T2, Fluorescein-MCU-NTD (MCU 72-189 …); assay: other fluorescence titration; steady-state fluorescein fluorescence; ~0.1 uM fluorescein-MCU-NTD titrated with MCUb-NTD; 20 mM Tris (pH 8.5), 150 mM NaCl, 1 mM DTT, 0.0001% (v/v) NP-40, 5 mM CaCl2; 22.5 C; one-site model; settings: both partners purified
[14] = target: T2, Fluorescein-MCU-NTD (MCU 72-189 …); assay: other fluorescence titration; steady-state fluorescein fluorescence; ~0.1 uM fluorescein-MCU-NTD titrated with MCUb-NTD; 20 mM Tris (pH 8.5), 150 mM NaCl, 1 mM DTT, 0.0001% (v/v) NP-40, 5 mM MgCl2; 22.5 C; one-site model; settings: both partners purified
[15] = target: T3, MCU-NTD-D147R, MCU 72-189 D147R; assay: other fluorescence titration; steady-state fluorescein fluorescence; ~0.1 uM fluorescein-MCUb-NTD titrated with unlabelled MCU-NTD variant; 20 mM Tris (pH 8.5), 150 mM NaCl, 1 mM DTT, 0.0001% (v/v) NP-40; 22.5 C; one-site model; settings: both partners purified
[16] = target: T3, MCU-NTD-D147R, MCU 72-189 D147R; assay: MST; ~0.5 uM Red-(NHS)-MCUb-NTD titrated with unlabelled MCU-NTD variant; 20 mM Tris (pH 8.5), 150 mM NaCl, 1 mM DTT, 0.05% (v/v) NP-40; 22 C; one-site model; settings: both partners purified
[17] = target: B6; assay: MST; Red-NHS-labelled MCUb-NTD, increasing MCU-NTD or MCU-NTD-D147R; 20 mM Tris (pH 8.5), 150 mM NaCl, 1 mM DTT, 0.05% (v/v) NP-40, 22°C; one-site model; settings: both partners purified
[18] = target: B5; assay: other fluorescence titration; steady-state fluorescein fluorescence; 0.1 uM MCUb-NTD-fluorescein titrated with MCU-NTD or MCU-NTD-D147R; 20 mM Tris (pH 8.5), 150 mM NaCl, 1 mM DTT, 0.0001% (v/v) NP-40, 22.5°C; one-site model; settings: both partners purified
[19] = target: T4, MCU amino-terminal domain (MCU-NTD), …; assay: as above; settings: both partners purified
[20] = target: T4, MCU amino-terminal domain (MCU-NTD), …; assay: MST; Red-NHS-labelled MCUb-NTD, increasing MCU-NTD or MCU-NTD-D147R; 20 mM Tris (pH 8.5), 150 mM NaCl, 1 mM DTT, 0.05% (v/v) NP-40, 22°C; one-site model; settings: both partners purified

stoichiometry N [1]: 2
Molecule: MCU amino-terminal domain (MCU-NTD), MCU residues 72-189 (from UniProt Q8NE86-1 72-189) (domain or fragment)

stoichiometry N [2]: 0.96 | stoichiometry N [3]: 1.05 | stoichiometry N [4]: 0.98
Molecule: MCU amino-terminal domain (MCU-NTD), MCU 72-189 (from UniProt Q8NE86-1 72-189) (domain or fragment)

Molecule: B1
stoichiometry N [5]: 0.95 | stoichiometry N [6]: 1.02 | stoichiometry N [7]: 0.92 | stoichiometry N [8]: 0.92 | stoichiometry N [9]: 1.72 | stoichiometry N [10]: 1.61 | stoichiometry N [11]: 0.97 | stoichiometry N [12]: 1.68 | Kd [13]: 90 nM | Kd [14]: 160 nM

Molecule: B2
Kd [15]: 250 nM

Molecule: B3
Kd [16]: 11300 nM

Molecule: B4
fold change of KD against MCU-NTD [17]: ~2 fold | fold change of KD against MCU-NTD [18]: ~2 fold

Molecule: B5
Kd [19]: 133 nM

Molecule: B6
Kd [20]: 4650 nM
